Results on 1 molecule are retold here after article doi:10.1101/2020.04.30.070086 (bioRxiv, 2020).

The target in this test is T1, keratin 1 (K1) (UniProt P04104 1-637).
T1 sequence (looked up): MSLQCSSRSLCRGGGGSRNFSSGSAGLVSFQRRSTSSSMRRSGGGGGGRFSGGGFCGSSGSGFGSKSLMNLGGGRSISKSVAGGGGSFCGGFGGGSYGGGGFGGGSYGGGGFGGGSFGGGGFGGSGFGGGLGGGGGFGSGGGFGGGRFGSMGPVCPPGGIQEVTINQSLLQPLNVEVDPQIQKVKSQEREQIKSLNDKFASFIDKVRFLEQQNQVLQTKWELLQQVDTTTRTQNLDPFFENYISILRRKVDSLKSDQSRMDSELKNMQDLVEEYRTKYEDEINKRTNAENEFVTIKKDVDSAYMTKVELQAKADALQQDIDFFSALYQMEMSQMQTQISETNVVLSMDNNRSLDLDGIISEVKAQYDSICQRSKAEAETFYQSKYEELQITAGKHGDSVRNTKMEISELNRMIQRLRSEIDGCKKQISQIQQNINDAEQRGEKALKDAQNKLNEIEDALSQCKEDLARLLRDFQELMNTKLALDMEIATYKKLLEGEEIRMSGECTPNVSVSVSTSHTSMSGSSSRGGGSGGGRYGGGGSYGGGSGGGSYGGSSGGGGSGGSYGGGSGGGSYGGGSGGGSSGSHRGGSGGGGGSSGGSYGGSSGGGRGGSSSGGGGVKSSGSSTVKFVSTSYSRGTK
As to the kind of experiment: co-sedimentation.

B1: keratin 10 (K10), full length (natural protein, UniProt P02535-2 1-561, looked up)
chain: MSVLYSSSSKQFSSSRSGGGGGGGSVRVSSTRGSLGGGYSSGGFSGGSFSRGSSGGGCFGGSSGGYGGFGGGGSFGGGYGGSSFGGGYGGSSFGGGSFGGGGSFGGGSFGGGSYGGGFGGGGFGGDGGSLLSGNEKVTMQNLNDRLASYMDKVRALEESNYELEGKIKEWYEKHGNSSQREPRDYSKYYKTIEDLKGQILTLTTDNANVLLQIDNARLAADDFRLKYENEVTLRQSVEADINGLRRVLDELTLSKSDLEMQIESLNEELAYLKKNHEEEMRDLQNVSTGDVNVEMNAAPGVDLTQLLNNMRNQYEQLAEKNRKDAEEWFNQKSKELTTEIDSNIEQMSSHKSEITELRRTVQGLEIELQSQLALKQSLEASLAETEGRYCVQLSQIQSQISALEEQLQQIRAETECQNAEYQQLLDIKTRLENEIQTYRSLLEGEGSSSGGGGGRRGGSGGGSYGGSSGGGSYGGSSGGGGSYGGSSGGGGSYGGGSSGGGSHGGSSGGGYGGGSSSGGAGGHGGSSGGGYGGGSSSGGQGGSGGFKSSGGGDQSSKGPRY
With B1, the binding result is “binds”.
